Results reported in the Human Domainome abundance scans (Beltran et al. 2025).

B1: POU domain, class 6, transcription factor 2, residues 609 to 663; numbered along this chain, P78424 (parent)
chain: KRRTSFTPQALEILNAHFEKNTHPSGQEMTEIAEKLNYDREVVRVWFCNKRQALK

Variants of: B1
Assay: abundance fitness (aPCA) (normalised: wild type 0, dead -1); higher = more abundant; growth selection in yeast, the domain comes from the species named
Conditions: Homo sapiens

Abundance fitness, by site and new letter:
E28: F -0.17, N -0.313, T -0.088, M -0.595
I32: W -0.742, D -1.16, F -0.649, Y 0.031, L -0.154, S -1.07, G -0.705, M -0.246, V -0.27, R -0.958, A -0.679, N -0.838
H17: N -0.101, Q -0.002, L -0.008, W 0.011, R -0.101, A -0.03, I -0.028, M -0.028, S -0.065, G -0.369, E 0.064, F -0.056, K 0.04, Y -0.065, P -0.961, V -0.031, C -0.063, D -0.156
G26: L -0.054, I -0.02, F -0.173, K -0.114, P -0.004, R -0.032, Q -0.415, N -0.041, T 0.03, A 0.035, M -0.078, E 0.119, S -0.08, V 0.073, W 0.119, C -0.027
K35: R -0.053, G -0.087, E -0.154, M -0.062, F -0.194, H -0.221, C -0.186, Y -0.088, D -0.139, V -0.112, L -0.01, S -0.047, N -0.255, T 0.071, P -0.883, Q -0.095, I -0.167
P24: H -0.905, L -0.394, N -0.96, F -0.916, T -0.641, R -0.909, K -1.1, Y -0.805, M -0.327, I -0.21, D -0.792, E -0.978, W -0.317, C -0.462, A -0.497, V -0.386, Q -0.741
A33: R -0.809, S -0.118, C -0.199, D -0.669, V -0.259, H -0.881, M -0.477, G -0.248, W -1.01, Q -0.412
Q27: I 0.091, P -0.005, Y -0.315, L 0.064, N -0.106, W -0.142, S -0.071, R 0.012, D 0.25, A -0.063, E 0.05, M -0.39, V -0.091, G -0.063, H 0.243, T 0.022, F -0.737, K 0.131
T22: R 0.005, V 0.105, H 0.134, E -0.098, S 0.003, Y -0.201, N 0.049, F -0.198, W -0.176, G 0.002, P 0.016, D -0.037, Q 0.084, K -0.089, I -0.103, L -0.017, M -0.022, A 0.006
K20: P -0.936, Q -0.17, V -0.131, H -0.239, I -0.245, E -0.007, F -0.421, T -0.057, L -0.144, W -0.303, S -0.088, M -0.02, D -0.291, R -0.017, A -0.064, C -0.289, Y -0.224, N -0.227, G -0.129
N21: K -0.303, M -0.421, Y -0.36, H -0.182, C -0.008, D -0.153, Q -0.044, W -0.67, R -0.274, E -0.016, A -0.198, P -0.987, L -0.551, I -0.351, S -0.17, T -0.173, F -0.659, V -0.335
